From PMC13287468, “Newton’s cradle-like allosteric mechanism explains regulatory RsmE RNA binding”

Assays:
RsmE P64W [1] = biological target: T1, RsmE P64W (Pseudomonas protegens, UniProt P0DPC3, P64W); test: ITC; other site of the dimer holds one SL2 RNA; 50 mM potassium phosphate pH 7.2, 30 mM NaCl, 298 K; 10 uM monomer in the cell; conditions: tags: C-His6 (kept), chain copies: 2
T1 sequence: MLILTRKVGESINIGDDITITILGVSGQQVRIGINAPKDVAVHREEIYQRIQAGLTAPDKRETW

[2] = biological target: T2, RsmE dimer (P64W, C-terminal His6) (UniProt P0DPC3 1-64, P64W); test: ITC; apo RsmE dimer, first site; 30 mM NaCl, 50 mM potassium phosphate pH 7.2; ITC at 298 K (NaCl varied in Supp. Fig. 8), RNA titrated into 10 uM RsmE monomer, sequential two-site model; NMR at 303/313 K with 3% D2O; conditions: protein: recombinant; tags: C-terminal 6xHis; chain copies: 2; hairpin
T2 sequence: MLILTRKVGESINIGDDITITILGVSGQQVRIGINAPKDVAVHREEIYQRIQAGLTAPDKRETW

[3] = biological target: T2, RsmE dimer (P64W, C-terminal His6); test: ITC; first site (Kd1); 30 mM NaCl; text: likely upper bound, true value may be <1 nM; 30 mM NaCl, 50 mM potassium phosphate pH 7.2; ITC at 298 K (NaCl varied in Supp. Fig. 8), RNA titrated into 10 uM RsmE monomer, sequential two-site model; NMR at 303/313 K with 3% D2O; conditions: protein: recombinant; tags: C-terminal 6xHis; chain copies: 2; hairpin, hexaloop
RsmE P64W [4] = biological target: T1, RsmE P64W; test: ITC; 50 mM potassium phosphate pH 7.2, 10 mM NaCl, 298 K; 10 uM monomer in the cell; conditions: tags: C-His6 (kept); chain copies: 2; hairpin; 1 RNA per protein dimer
RsmE P64W [5] = biological target: T1, RsmE P64W; test: ITC; 50 mM potassium phosphate pH 7.2, 30 mM NaCl, 298 K; 10 uM monomer in the cell; conditions: tags: C-His6 (kept); chain copies: 2; hairpin; 1 RNA per protein dimer
RsmE P64W [6] = biological target: T1, RsmE P64W; test: ITC; 50 mM potassium phosphate pH 7.2, 100 mM NaCl, 298 K; 10 uM monomer in the cell; conditions: tags: C-His6 (kept); chain copies: 2; hairpin; 1 RNA per protein dimer
RsmE P64W [7] = biological target: T1, RsmE P64W; test: ITC; 50 mM potassium phosphate pH 7.2, 300 mM NaCl, 298 K; 10 uM monomer in the cell; conditions: tags: C-His6 (kept); chain copies: 2; hairpin; 1 RNA per protein dimer
RsmE P64W [8] = biological target: T1, RsmE P64W; test: ITC; other site of the dimer holds one SL2 RNA; 50 mM potassium phosphate pH 7.2, 10 mM NaCl, 298 K; 10 uM monomer in the cell; conditions: tags: C-His6 (kept); chain copies: 2; hairpin; 2 copies of the RNA per protein dimer, value for the second
RsmE P64W [9] = biological target: T1, RsmE P64W; test: ITC; other site of the dimer holds one SL2 RNA; 50 mM potassium phosphate pH 7.2, 100 mM NaCl, 298 K; 10 uM monomer in the cell; conditions: tags: C-His6 (kept); chain copies: 2; hairpin; 2 copies of the RNA per protein dimer, value for the second
RsmE P64W [10] = biological target: T1, RsmE P64W; test: ITC; other site of the dimer holds one SL2 RNA; 50 mM potassium phosphate pH 7.2, 300 mM NaCl, 298 K; 10 uM monomer in the cell; conditions: tags: C-His6 (kept); chain copies: 2; hairpin; 2 copies of the RNA per protein dimer, value for the second
RsmE P64W [11] = biological target: T1, RsmE P64W; test: ITC; other site of the dimer holds one hcnA RNA; 50 mM potassium phosphate pH 7.2, 30 mM NaCl, 298 K; 10 uM monomer in the cell; conditions: tags: C-His6 (kept); chain copies: 2; hairpin; 2 copies of the RNA per protein dimer, value for the second
RsmE P64W [12] = biological target: T1, RsmE P64W; test: ITC; other site of the dimer holds one 4bpSL2 RNA; 50 mM potassium phosphate pH 7.2, 30 mM NaCl, 298 K; 10 uM monomer in the cell; conditions: tags: C-His6 (kept); chain copies: 2; hairpin; 2 copies of the RNA per protein dimer, value for the second
[13] = biological target: T2, RsmE dimer (P64W, C-terminal His6); test: NMR; 1:1 semi-holo complex; no minor conformations; 30 mM NaCl, 50 mM potassium phosphate pH 7.2; ITC at 298 K (NaCl varied in Supp. Fig. 8), RNA titrated into 10 uM RsmE monomer, sequential two-site model; NMR at 303/313 K with 3% D2O; conditions: protein: recombinant; tags: C-terminal 6xHis; chain copies: 2; hairpin, 4 bp stem

B1: hcnA SD (ssRNA)
RNA 1: GGGCUUCACGGAUGAAGCCC
RNA 2: GGGCCAUCAAGGACGAUGGUCC
modifications: T7 transcript (5' triphosphate expected)
In the case of B1, the Kd (RsmE P64W [1]; two separate hairpins, one per site) is reported as 297 ± 11.4 nM.

B2: hcnA SD RNA (structured_RNA)
RNA: GGGCUUCACGGAUGAAGCCC
For B2, the Kd [2] was ~10 nM.

B3: SL2 RNA (RsmZ) (structured_RNA)
RNA: GGGCCAUCAAGGACGAUGGUCC
B3 gave a Kd [3] of 1.4 nM.

B4: SL2 (ssRNA)
RNA: GGGCCAUCAAGGACGAUGGUCC
modifications: T7 transcript (5' triphosphate expected)
In the case of B4, the Kd (RsmE P64W [4]) is reported as < 0.943 nM, the Kd (RsmE P64W [5]) is reported as < 1.45 nM and the Kd (RsmE P64W [6]) is reported as 5.71 ± 1.35 nM. It also gave a Kd (RsmE P64W [7]) of 15.4 ± 1.51 nM, a Kd (RsmE P64W [8]) of 22.3 ± 2.06 nM and a Kd (RsmE P64W [1]; hairpin, 2 copies of the RNA per protein dimer, value for the second) of 31.1 ± 2.78 nM. It also gave a Kd (RsmE P64W [9]) of 64.2 ± 3.23 nM and a Kd (RsmE P64W [10]) of 118 ± 4.14 nM.

B5: hcnA SD (ssRNA)
RNA: GGGCUUCACGGAUGAAGCCC
modifications: T7 transcript (5' triphosphate expected)
In the case of B5, the Kd (RsmE P64W [5]) is reported as 8.67 ± 2.02 nM and the Kd (RsmE P64W [11]) is reported as 218 ± 12.8 nM.

B6: 4bpSL2 (ssRNA)
RNA: GGAUCAAGGACGAUCC
modifications: T7 transcript (5' triphosphate expected)
For B6, the Kd (RsmE P64W [5]) was 21.6 ± 2.56 nM and the Kd (RsmE P64W [12]) was 97.2 ± 3.58 nM.

B7: 4bpSL2 RNA (structured_RNA)
RNA: GGAUCAAGGACGAUCC
B7: binds [13].
